The target in assay [1] is 48d IC as analyte in SPR (non-crosslinked control) (HIV-1 strain BG505, UniProt Q2N0S6). Nature of the assay: SPR.
For assay [2], the target named is 48d.cl IC as analyte in SPR (Fab-Fab-crosslinked [change]) (HIV-1 strain BG505, UniProt Q2N0S6). Nature of the assay: SPR.

B1: 2mutVRC01 (antibody, V domains shown)
VH: QVQLVQSGGQMKKPGESMRISCRASGYEFIDCTLNWIRLAPGKRPEWMGWLKPRGGAVNYARPLQGRVTMTRDVYSDTAFLELRSLTVDDTAVYFCTRGKNCDYNWDFEHWGRGTPVIVSS
VL: EIVLTQSPGTLSLSPGETAIISCRTSQYGSAALAWYQQRPGQAPRLVIYSGSTRAAGIPDRFSGSRWGPDYNLTISNLESGDFGVYYCQQYEFFGQGTKVQVD
Usually Kd stands for a measure of binding affinity in units of concentration. Read a high Kd as a looser complex. Broadly, the koff is a measure of how fast the partners let go of each other. High values mean fast dissociation, low ones slow dissociation. In assay [1], B1 gave a Kd of 0.81 nM and a koff of 0.00031 s⁻¹. In assay [2], this molecule gave an equilibrium dissociation constant (Kd) of 0.52 nM and a koff of 0.00012 s⁻¹.

Source of the values: PMC12846365 (2026).
